# Measurements: patent publication US12679878B2, “CRF2 receptor agonists and their use in therapy” (SANOFI, priority 2020, dated 2026)
# Starred links: 1 amine or outer side, 2 acyl side, 3 side chain; linkers in the order of their positions; H or OH if unused. Non-standard residues stand in square brackets, D forms with d. Groups on a side chain read outwards from the residue. No end group written: not given here. *: point of attachment. C18 diacid = O=C(O)CCCCCCCCCCCCCCCCC(=O)*; γGlu = O=C(O)[C@H](CCC(=O)[*:2])N[*:1]; Palmitoyl = CCCCCCCCCCCCCCCC(=O)*; AEEA = NCCOCCOCC(=O)O; Aib = CC(C)(N)C(=O)O
# T1: CRF1R receptor (anti-target) (UniProt P34998 24-415, limits assumed)
# T1 sequence (looked up): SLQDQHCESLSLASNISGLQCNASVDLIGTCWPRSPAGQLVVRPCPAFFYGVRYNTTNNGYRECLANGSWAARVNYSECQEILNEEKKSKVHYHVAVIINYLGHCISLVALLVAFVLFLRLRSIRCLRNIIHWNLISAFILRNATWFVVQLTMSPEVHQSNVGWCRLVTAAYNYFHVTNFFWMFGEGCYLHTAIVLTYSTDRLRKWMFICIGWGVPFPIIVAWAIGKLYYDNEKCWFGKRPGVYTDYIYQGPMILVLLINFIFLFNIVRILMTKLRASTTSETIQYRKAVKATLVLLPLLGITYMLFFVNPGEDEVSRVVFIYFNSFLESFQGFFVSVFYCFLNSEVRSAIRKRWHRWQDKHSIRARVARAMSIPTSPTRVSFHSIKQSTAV
# B1: peptide of SEQ ID NO: 18 (peptide)
# peptide: IVLSLD[dV]PTKLK([γGlu-Palmitoyl])QKLLKQERQRKEREQAEKNKRILERV-NH2
# modifications: N-terminus assumed
# SMILES: CCCCCCCCCCCCCCCC(=O)N[C@@H](CCC(=O)NCCCC[C@H](NC(=O)[C@H](CC(C)C)NC(=O)[C@H](CCCCN)NC(=O)[C@@H](NC(=O)[C@@H]1CCCN1C(=O)[C@H](NC(=O)[C@H](CC(=O)O)NC(=O)[C@H](CC(C)C)NC(=O)[C@H](CO)NC(=O)[C@H](CC(C)C)NC(=O)[C@@H](NC(=O)[C@@H](N)[C@@H](C)CC)C(C)C)C(C)C)[C@@H](C)O)C(=O)N[C@@H](CCC(N)=O)C(=O)N[C@@H](CCCCN)C(=O)N[C@@H](CC(C)C)C(=O)N[C@@H](CC(C)C)C(=O)N[C@@H](CCCCN)C(=O)N[C@@H](CCC(N)=O)C(=O)N[C@@H](CCC(=O)O)C(=O)N[C@@H](CCCNC(=N)N)C(=O)N[C@@H](CCC(N)=O)C(=O)N[C@@H](CCCNC(=N)N)C(=O)N[C@@H](CCCCN)C(=O)N[C@@H](CCC(=O)O)C(=O)N[C@@H](CCCNC(=N)N)C(=O)N[C@@H](CCC(=O)O)C(=O)N[C@@H](CCC(N)=O)C(=O)N[C@@H](C)C(=O)N[C@@H](CCC(=O)O)C(=O)N[C@@H](CCCCN)C(=O)N[C@@H](CC(N)=O)C(=O)N[C@@H](CCCCN)C(=O)N[C@@H](CCCNC(=N)N)C(=O)N[C@H](C(=O)N[C@@H](CC(C)C)C(=O)N[C@@H](CCC(=O)O)C(=O)N[C@@H](CCCNC(=N)N)C(=O)N[C@H](C(N)=O)C(C)C)[C@@H](C)CC)C(=O)O
# B2: peptide of SEQ ID NO: 43 (peptide)
# peptide: IVLSLDVPIKLK([AEEA-AEEA-γGlu-C18 diacid])QILLEQAKQKKLRAQAETNVRILERV-NH2
# modifications: N-terminus assumed
# SMILES: CC[C@H](C)[C@H](N)C(=O)N[C@H](C(=O)N[C@@H](CC(C)C)C(=O)N[C@@H](CO)C(=O)N[C@@H](CC(C)C)C(=O)N[C@@H](CC(=O)O)C(=O)N[C@H](C(=O)N1CCC[C@H]1C(=O)N[C@H](C(=O)N[C@@H](CCCCN)C(=O)N[C@@H](CC(C)C)C(=O)N[C@@H](CCCCNC(=O)COCCOCCNC(=O)COCCOCCNC(=O)CC[C@H](NC(=O)CCCCCCCCCCCCCCCCC(=O)O)C(=O)O)C(=O)N[C@@H](CCC(N)=O)C(=O)N[C@H](C(=O)N[C@@H](CC(C)C)C(=O)N[C@@H](CC(C)C)C(=O)N[C@@H](CCC(=O)O)C(=O)N[C@@H](CCC(N)=O)C(=O)N[C@@H](C)C(=O)N[C@@H](CCCCN)C(=O)N[C@@H](CCC(N)=O)C(=O)N[C@@H](CCCCN)C(=O)N[C@@H](CCCCN)C(=O)N[C@@H](CC(C)C)C(=O)N[C@@H](CCCNC(=N)N)C(=O)N[C@@H](C)C(=O)N[C@@H](CCC(N)=O)C(=O)N[C@@H](C)C(=O)N[C@@H](CCC(=O)O)C(=O)N[C@H](C(=O)N[C@@H](CC(N)=O)C(=O)N[C@H](C(=O)N[C@@H](CCCNC(=N)N)C(=O)N[C@H](C(=O)N[C@@H](CC(C)C)C(=O)N[C@@H](CCC(=O)O)C(=O)N[C@@H](CCCNC(=N)N)C(=O)N[C@H](C(N)=O)C(C)C)[C@@H](C)CC)C(C)C)[C@@H](C)O)[C@@H](C)CC)[C@@H](C)CC)C(C)C)C(C)C
# B3: peptide of SEQ ID NO: 131 (peptide)
# peptide: IVLSLD[dV]PIKLK([AEEA-AEEA-γGlu-C18 diacid])QILLEQERQK[Aib]QRQQAEKNKQILAQV-NH2
# modifications: N-terminus assumed
# SMILES: CC[C@H](C)[C@H](N)C(=O)N[C@H](C(=O)N[C@@H](CC(C)C)C(=O)N[C@@H](CO)C(=O)N[C@@H](CC(C)C)C(=O)N[C@@H](CC(=O)O)C(=O)N[C@@H](C(=O)N1CCC[C@H]1C(=O)N[C@H](C(=O)N[C@@H](CCCCN)C(=O)N[C@@H](CC(C)C)C(=O)N[C@@H](CCCCNC(=O)COCCOCCNC(=O)COCCOCCNC(=O)CC[C@H](NC(=O)CCCCCCCCCCCCCCCCC(=O)O)C(=O)O)C(=O)N[C@@H](CCC(N)=O)C(=O)N[C@H](C(=O)N[C@@H](CC(C)C)C(=O)N[C@@H](CC(C)C)C(=O)N[C@@H](CCC(=O)O)C(=O)N[C@@H](CCC(N)=O)C(=O)N[C@@H](CCC(=O)O)C(=O)N[C@@H](CCCNC(=N)N)C(=O)N[C@@H](CCC(N)=O)C(=O)N[C@@H](CCCCN)C(=O)NC(C)(C)C(=O)N[C@@H](CCC(N)=O)C(=O)N[C@@H](CCCNC(=N)N)C(=O)N[C@@H](CCC(N)=O)C(=O)N[C@@H](CCC(N)=O)C(=O)N[C@@H](C)C(=O)N[C@@H](CCC(=O)O)C(=O)N[C@@H](CCCCN)C(=O)N[C@@H](CC(N)=O)C(=O)N[C@@H](CCCCN)C(=O)N[C@@H](CCC(N)=O)C(=O)N[C@H](C(=O)N[C@@H](CC(C)C)C(=O)N[C@@H](C)C(=O)N[C@@H](CCC(N)=O)C(=O)N[C@H](C(N)=O)C(C)C)[C@@H](C)CC)[C@@H](C)CC)[C@@H](C)CC)C(C)C)C(C)C
# B4: peptide of SEQ ID NO: 45 (peptide)
# peptide: IVLSLDVPIKLK([AEEA-AEEA-γGlu-C18 diacid])QILLEQAKQK[Aib]LKAQAETNVRILERV-NH2
# modifications: N-terminus assumed
# SMILES: CC[C@H](C)[C@H](N)C(=O)N[C@H](C(=O)N[C@@H](CC(C)C)C(=O)N[C@@H](CO)C(=O)N[C@@H](CC(C)C)C(=O)N[C@@H](CC(=O)O)C(=O)N[C@H](C(=O)N1CCC[C@H]1C(=O)N[C@H](C(=O)N[C@@H](CCCCN)C(=O)N[C@@H](CC(C)C)C(=O)N[C@@H](CCCCNC(=O)COCCOCCNC(=O)COCCOCCNC(=O)CC[C@H](NC(=O)CCCCCCCCCCCCCCCCC(=O)O)C(=O)O)C(=O)N[C@@H](CCC(N)=O)C(=O)N[C@H](C(=O)N[C@@H](CC(C)C)C(=O)N[C@@H](CC(C)C)C(=O)N[C@@H](CCC(=O)O)C(=O)N[C@@H](CCC(N)=O)C(=O)N[C@@H](C)C(=O)N[C@@H](CCCCN)C(=O)N[C@@H](CCC(N)=O)C(=O)N[C@@H](CCCCN)C(=O)NC(C)(C)C(=O)N[C@@H](CC(C)C)C(=O)N[C@@H](CCCCN)C(=O)N[C@@H](C)C(=O)N[C@@H](CCC(N)=O)C(=O)N[C@@H](C)C(=O)N[C@@H](CCC(=O)O)C(=O)N[C@H](C(=O)N[C@@H](CC(N)=O)C(=O)N[C@H](C(=O)N[C@@H](CCCNC(=N)N)C(=O)N[C@H](C(=O)N[C@@H](CC(C)C)C(=O)N[C@@H](CCC(=O)O)C(=O)N[C@@H](CCCNC(=N)N)C(=O)N[C@H](C(N)=O)C(C)C)[C@@H](C)CC)C(C)C)[C@@H](C)O)[C@@H](C)CC)[C@@H](C)CC)C(C)C)C(C)C
# B5: peptide of SEQ ID NO: 36 (peptide)
# peptide: IVLSLD[dV]PTKLK([AEEA-AEEA-γGlu-C18 diacid])QKLLKQERQRK[Aib]REQAEKNKRILERV-NH2
# modifications: N-terminus assumed
# SMILES: CC[C@H](C)[C@H](N)C(=O)N[C@H](C(=O)N[C@@H](CC(C)C)C(=O)N[C@@H](CO)C(=O)N[C@@H](CC(C)C)C(=O)N[C@@H](CC(=O)O)C(=O)N[C@@H](C(=O)N1CCC[C@H]1C(=O)N[C@H](C(=O)N[C@@H](CCCCN)C(=O)N[C@@H](CC(C)C)C(=O)N[C@@H](CCCCNC(=O)COCCOCCNC(=O)COCCOCCNC(=O)CC[C@H](NC(=O)CCCCCCCCCCCCCCCCC(=O)O)C(=O)O)C(=O)N[C@@H](CCC(N)=O)C(=O)N[C@@H](CCCCN)C(=O)N[C@@H](CC(C)C)C(=O)N[C@@H](CC(C)C)C(=O)N[C@@H](CCCCN)C(=O)N[C@@H](CCC(N)=O)C(=O)N[C@@H](CCC(=O)O)C(=O)N[C@@H](CCCNC(=N)N)C(=O)N[C@@H](CCC(N)=O)C(=O)N[C@@H](CCCNC(=N)N)C(=O)N[C@@H](CCCCN)C(=O)NC(C)(C)C(=O)N[C@@H](CCCNC(=N)N)C(=O)N[C@@H](CCC(=O)O)C(=O)N[C@@H](CCC(N)=O)C(=O)N[C@@H](C)C(=O)N[C@@H](CCC(=O)O)C(=O)N[C@@H](CCCCN)C(=O)N[C@@H](CC(N)=O)C(=O)N[C@@H](CCCCN)C(=O)N[C@@H](CCCNC(=N)N)C(=O)N[C@H](C(=O)N[C@@H](CC(C)C)C(=O)N[C@@H](CCC(=O)O)C(=O)N[C@@H](CCCNC(=N)N)C(=O)N[C@H](C(N)=O)C(C)C)[C@@H](C)CC)[C@@H](C)O)C(C)C)C(C)C
# B6: peptide of SEQ ID NO: 226 (peptide)
# peptide: IVLSLD[dV]PIGLK([γGlu-Palmitoyl])QKLLKQQRQRKERQQAEKNKRILERV-NH2
# modifications: N-terminus assumed
# SMILES: CCCCCCCCCCCCCCCC(=O)N[C@@H](CCC(=O)NCCCC[C@H](NC(=O)[C@H](CC(C)C)NC(=O)CNC(=O)[C@@H](NC(=O)[C@@H]1CCCN1C(=O)[C@H](NC(=O)[C@H](CC(=O)O)NC(=O)[C@H](CC(C)C)NC(=O)[C@H](CO)NC(=O)[C@H](CC(C)C)NC(=O)[C@@H](NC(=O)[C@@H](N)[C@@H](C)CC)C(C)C)C(C)C)[C@@H](C)CC)C(=O)N[C@@H](CCC(N)=O)C(=O)N[C@@H](CCCCN)C(=O)N[C@@H](CC(C)C)C(=O)N[C@@H](CC(C)C)C(=O)N[C@@H](CCCCN)C(=O)N[C@@H](CCC(N)=O)C(=O)N[C@@H](CCC(N)=O)C(=O)N[C@@H](CCCNC(=N)N)C(=O)N[C@@H](CCC(N)=O)C(=O)N[C@@H](CCCNC(=N)N)C(=O)N[C@@H](CCCCN)C(=O)N[C@@H](CCC(=O)O)C(=O)N[C@@H](CCCNC(=N)N)C(=O)N[C@@H](CCC(N)=O)C(=O)N[C@@H](CCC(N)=O)C(=O)N[C@@H](C)C(=O)N[C@@H](CCC(=O)O)C(=O)N[C@@H](CCCCN)C(=O)N[C@@H](CC(N)=O)C(=O)N[C@@H](CCCCN)C(=O)N[C@@H](CCCNC(=N)N)C(=O)N[C@H](C(=O)N[C@@H](CC(C)C)C(=O)N[C@@H](CCC(=O)O)C(=O)N[C@@H](CCCNC(=N)N)C(=O)N[C@H](C(N)=O)C(C)C)[C@@H](C)CC)C(=O)O
# Biological target: rat CRF2R α receptor (rat, UniProt P47866 20-411)
# Experiment: cell-based or functional assay
# Sequence of rat CRF2R α receptor (P47866 20-411): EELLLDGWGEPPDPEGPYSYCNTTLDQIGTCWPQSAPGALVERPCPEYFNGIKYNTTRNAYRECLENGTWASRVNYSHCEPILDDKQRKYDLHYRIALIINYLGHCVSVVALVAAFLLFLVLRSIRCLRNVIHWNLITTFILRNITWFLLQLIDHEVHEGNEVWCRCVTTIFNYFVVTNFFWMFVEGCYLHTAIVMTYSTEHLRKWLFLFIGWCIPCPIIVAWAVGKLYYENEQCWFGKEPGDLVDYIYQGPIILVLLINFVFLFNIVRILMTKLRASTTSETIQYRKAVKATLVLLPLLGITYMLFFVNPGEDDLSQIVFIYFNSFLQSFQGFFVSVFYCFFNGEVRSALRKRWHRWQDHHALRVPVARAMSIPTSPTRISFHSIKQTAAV
row,Binder,"EC50 [nM], 0% HSA (cAMP, A7R5 cells)"
1,B1,0.02 nM
2,B2,11.5 nM
3,B3,0.39 nM
4,B4,47.3 nM
5,B5,13.3 nM

# Biological target: T1, CRF1R receptor (anti-target)
# Experiment: cell-based or functional assay
Binder,"EC50 [nM] 0% HSA (cAMP, HTRF)",Emax (%) (100% = Sauvagine at 100 nM)
B6,96.2 nM,84%
IVLSLD[dV]PTKLK([γGlu-Palmitoyl])QKLLKQERQRKERE[Aib]AEKNKRILERV-NH2 [peptide of SEQ ID NO: 225],24.2 nM,58.9%
